These are literature values, as cited in PMC10606834, “Is the Neuropeptide PEN a Ligand of GPR83?” (International Journal of Molecular Sciences, 2023).

One data set deals with GPR83. The source says: G protein-coupled receptor 83 (GPR83), also termed glucocorticoid-induced receptor (GIR), GPR72, KIAA1540, or JP05, is a class A G protein-coupled receptor with predominant expression in the […] and proposed function in the regulation of food intake and in anxiety-like behavior [1, 2, 3]. […] A potential role of GPR83 in regulatory T cell development and function has not been confirmed. […] The present study was initiated to evaluate PEN as a ligand of GPR83. […] While one end of the peptide may be crucial for binding the receptor, an absolute requirement of both peptide termini to be free of another ...

For data set [1], the system named is GPR83 (murine Att20 and STC-1 cells). The settings on record: pilot screen of peptide hormone library, ref [14]. An excerpt: While the earlier study employed CHO cells from Cricetulus griseus and Neuro2A cells from Mus musculus overexpressing human GPR83 [10], this study used human HEK293 and U2OS c ...

B1: FAM237A: 9 kDa protein, termed family with sequence similarity 237 member A (protein, UniProt A0A1B0GTK4 34-181, looked up)
Protein FAM237A: HSQTDLLALSQADPQCWESSSVLLLEMWKPRVSNTVSGFWDFMIYLKSSENLKHGALFWDLAQLFWDIYVDCVLSRNHGLGRRQLVGEEEKISAAQPQHTRSKQGTYSQLLRTSFLKKKELIEDLISMHVRRSGSSVIGKVNLEIKRK
Turning to B1, the “GPR83 ligand and agonist” value with GPR83 (comparative evaluation, multiple assay systems, ref [16]) is “only FAM237A was confirmed as a GPR83 ligand and agonist”. The “interaction with GPR83” value in the data set on GPR83 (multiple luminescence-based interaction and activation assays, ref [16]) is reported as “confirmed the interaction of FAM237A”. Further, the “activation of GPR83” value with GPR83 (peptide hormone library screening study, ref [14]) is “activate GPR83”. In addition, the “GPR83-mediated β-arrestin recruitment” value in data set [1] is listed as “activator of GPR83-mediated β-arrestin recruitment”.
